{
  "source": "patent US20230190718A1",
  "about": "“METHODS FOR THE TREATMENT OF PANCREATITIS AND PREVENTION OF PANCREATIC CANCER” (BOARD OF REGENTS, THE UNIVERSITY OF TEXAS SYSTEM, priority 2020, published 2023)",
  "key": {"[1]": {"tested_on": "repeated caerulein-induced pancreatitis in iKRAS animals", "assay": "Pharmacological modulation of ADM in iKRAS mice rechallenged with caerulein (repeated pancreatitis)", "assay_type": "in vivo", "procedure": "To explore the hypothesis that ADM is a physiologic, fast and reversible adaptation mediated by epithelial memory that limits the detrimental effects of repeated pancreatitis, the effects of pharmacological modulation of ADM was evaluated in iKRAS animals subjected to repeated inflammation.\n(§1) Induction of acute pancreatitis. […] Control mice received injections of pyrogen-free PBS. Mice were examined daily for health conditions and sacrificed at the indicated time points by CO2 asphyxiation and cervical dislocation.\nFor ADM quantification two hematoxylin/eosin-stained 10×-magnification fields of whole-mount pancreata from two mice each experimental group were analyzed with ImageJ. ADM areas, expressed in pixels, were normalized to control (rechallenged) mice considered as reference.\nImages, then, were analyzed with ImageJ and CC3 specific signal, expressed as area (pixels), was normalized to total pancreatic parenchyma using DAPI. From six to nine 4×-magnification fields of whole-mount pancreata from three mice each experimental group were analyzed."}, "[2]": {"tested_on": "Caerulein-induced pancreatitis", "assay": "Pretreatment with ADM inducers in caerulein-induced pancreatitis: histology (ADM) and CD45 infiltration", "assay_type": "in vivo, mice", "conditions": "EGF 1.2 mg/kg i.p., two injections a day for four days, before caerulein; 24 hrs after caerulein; compared with sulindac", "excerpt": "Epigenetic modifiers: Recently, the emerging role of epigenetic regulation has led to the development of a wide spectrum of small molecules targeting selectively bromodomain and extra-terminal (BET) protein family which are currently under evaluation in preclinical model of hematological malignancies and solid tumors (Asangani et al., 2014; Delmore et al., 2011; Filippakopoulos et al., 2010). Leveraging the persistent chromatin modifications induced by an acute inflammatory event, the possibility of limiting the detrimental effects of repeated pancreatitis was tested through the administration of INCB054329, a BRD4 inhibitor currently in phase I-II clinical studies in patients with advanced malignancies (Falchook et al., 2019).\nas §1\nDAPI nuclear counterstaining was also performed."}, "[3]": {"conditions": "EGF at pharmacological doses before induction of pancreatitis"}, "[4]": {"conditions": "iKRAS mice pretreated before and during CAE rechallenge, p<0.01"}},
  "note": "“Also recorded” adds a separate entry of the source.",
  "data": [
    {"molecule": "EGF (protein, UniProt P01133 23-1207, looked up, Pro-epidermal growth factor, growth factor used as MAPK agonist / ADM inducer) Pro-epidermal growth factor: PQHWSCPEGTLAGNGNSTCVGPAPFLIFSHGNSIFRIDTEGTNYEQLVVDAGVSVIMDFHYNEKRIYWVDLERQLLQRVFLNGSRQERVCNIEKNVSGMAINWINEEVIWSNQQEGIITVTDMKGNNSHILLSALKYPANVAVDPVERFIFWSSEVAGSLYRADLDGVGVKALLETSEKITAVSLDVLDKRLFWIQYNREGSNSLICSCDYDGGSVHISKHPTQHNLFAMSLFGDRIFYSTWKMKTIWIANKHTGKDMVRINLHSSFVPLGELKVVHPLAQPKAEDDTWEPEQKLCKLRKGNCSSTVCGQDLQSHLCMCAEGYALSRDRKYCEDVNECAFWNHGCTLGCKNTPGSYYCTCPVGFVLLPDGKRCHQLVSCPRNVSECSHDCVLTSEGPLCFCPEGSVLERDGKTCSGCSSPDNGGCSQLCVPLSPVSWECDCFPGYDLQLDEKSCAASGPQPFLLFANSQDIRHMHFDGTDYGTLLSQQMGMVYALDHDPVENKIYFAHTALKWIERANMDGSQRERLIEEGVDVPEGLAVDWIGRRFYWTDRGKSLIGRSDLNGKRSKIITKENISQPRGIAVHPMAKRLFWTDTGINPRIESSSLQGLGRLVIASSDLIWPSGITIDFLTDKLYWCDAKQSVIEMANLDGSKRRRLTQNDVGHPFAVAVFEDYVWFSDWAMPSVMRVNKRTGKDRVRLQGSMLKPSSLVVVHPLAKPGADPCLYQNGGCEHICKKRLGTAWCSCREGFMKASDGKTCLALDGHQLLAGGEVDLKNQVTPLDILSKTRVSEDNITESQHMLVAEIMVSDQDDCAPVGCSMYARCISEGEDATCQCLKGFAGDGKLCSDIDECEMGVPVCPPASSKCINTEGGYVCRCSEGYQGDGIHCLDIDECQLGEHSCGENASCTNTEGGYTCMCAGRLSEPGLICPDSTPPPHLREDDHHYSVRNSDSECPLSHDGYCLHDGVCMYIEALDKYACNCVVGYIGERCQYRDLKWWELRHAGHGQQQKVIVVAVCVVVLVMLLLLSLWGAHYYRTQKLLSKNPKNPYEESSRDVRSRRPADTEDGMSSCPQPWFVVIKEHQDLKNGGQPVAGEDGQAADGSMQPTSWRQEPQLCGMGTEQGCWIPVSSDKGSCPQVMERSFHMPSYGTQTLEGGVEKPHSLLSANPLWQQRALDPPHQMELTQ", "values": [
      {"measurement": "ADM formation", "setting": "[1]; [3]", "result": "largely promoted ADM formation"},
      {"measurement": "tissue damage, evaluated as number of cells positive for cleaved caspase 3", "setting": "[1]; [3]", "result": "strong reduction of tissue damage"},
      {"measurement": "decreased tissue damage as indicated by CC3 immunostaining", "setting": "[1]; [4]", "result": "~8", "unit": "fold"},
      {"measurement": "increase of ADM formation (relative area) with respect to control mice rechallenged with CAE alone", "setting": "[1]; [4]", "result": "~3", "unit": "fold"},
      {"measurement": "infiltration of CD45 cells (marker of inflammation)", "setting": "[2]", "result": "almost completely suppressed; also recorded: significant decrease of CD45 infiltration"}
    ]}
  ]
}
